Numbering of substitutions follows the chain as printed.
Columns and labels:
Assay in all cases: cleavage_in_vitro
[1] = system: T1, OMNI-105 (metagenomic, unknown); conditions: TXTL; PAM NRRRNNNN
T1 sequence: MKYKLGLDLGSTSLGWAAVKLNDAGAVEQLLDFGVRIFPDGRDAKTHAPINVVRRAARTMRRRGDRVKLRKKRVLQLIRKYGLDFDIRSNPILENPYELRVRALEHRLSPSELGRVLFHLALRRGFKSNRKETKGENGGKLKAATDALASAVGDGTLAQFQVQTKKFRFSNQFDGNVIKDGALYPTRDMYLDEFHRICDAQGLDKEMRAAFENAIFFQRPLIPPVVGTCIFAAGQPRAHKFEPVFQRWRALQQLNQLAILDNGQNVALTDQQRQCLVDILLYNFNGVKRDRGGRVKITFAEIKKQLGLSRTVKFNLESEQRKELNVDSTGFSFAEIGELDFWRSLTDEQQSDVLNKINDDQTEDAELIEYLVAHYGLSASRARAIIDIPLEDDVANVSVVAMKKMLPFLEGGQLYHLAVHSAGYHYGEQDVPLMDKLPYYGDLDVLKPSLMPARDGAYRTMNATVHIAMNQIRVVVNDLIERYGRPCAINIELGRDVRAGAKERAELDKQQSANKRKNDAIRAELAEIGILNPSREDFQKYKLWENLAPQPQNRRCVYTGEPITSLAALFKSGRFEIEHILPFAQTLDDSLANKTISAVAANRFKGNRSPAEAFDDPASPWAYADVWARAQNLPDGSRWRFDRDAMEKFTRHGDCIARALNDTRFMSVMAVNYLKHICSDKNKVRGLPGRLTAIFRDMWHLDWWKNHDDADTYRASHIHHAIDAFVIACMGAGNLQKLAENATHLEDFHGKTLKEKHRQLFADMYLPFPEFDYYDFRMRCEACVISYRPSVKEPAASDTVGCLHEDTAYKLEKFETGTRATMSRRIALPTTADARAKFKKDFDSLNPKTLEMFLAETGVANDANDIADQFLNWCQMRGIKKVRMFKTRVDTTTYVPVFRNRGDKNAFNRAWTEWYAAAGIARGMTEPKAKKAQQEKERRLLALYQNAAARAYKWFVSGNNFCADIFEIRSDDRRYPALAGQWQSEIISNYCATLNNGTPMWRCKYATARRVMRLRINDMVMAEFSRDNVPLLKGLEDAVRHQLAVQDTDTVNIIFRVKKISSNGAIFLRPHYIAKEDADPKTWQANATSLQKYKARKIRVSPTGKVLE

[2] = system: T2, OMNI-101 (metagenomic, unknown); conditions: TXTL; PAM NRRRNNNN
T2 sequence: T1 sequence with A151T, P1080T

[3] = system: T3, OMNI-104 (metagenomic, unknown); conditions: TXTL; PAM NRRRNYCN
T3 sequence: T1 sequence with P1080T, Q1084K

[4] = system: T4, OMNI-90 (metagenomic, unknown); conditions: TXTL, PAM NNATTGYN
T4 sequence: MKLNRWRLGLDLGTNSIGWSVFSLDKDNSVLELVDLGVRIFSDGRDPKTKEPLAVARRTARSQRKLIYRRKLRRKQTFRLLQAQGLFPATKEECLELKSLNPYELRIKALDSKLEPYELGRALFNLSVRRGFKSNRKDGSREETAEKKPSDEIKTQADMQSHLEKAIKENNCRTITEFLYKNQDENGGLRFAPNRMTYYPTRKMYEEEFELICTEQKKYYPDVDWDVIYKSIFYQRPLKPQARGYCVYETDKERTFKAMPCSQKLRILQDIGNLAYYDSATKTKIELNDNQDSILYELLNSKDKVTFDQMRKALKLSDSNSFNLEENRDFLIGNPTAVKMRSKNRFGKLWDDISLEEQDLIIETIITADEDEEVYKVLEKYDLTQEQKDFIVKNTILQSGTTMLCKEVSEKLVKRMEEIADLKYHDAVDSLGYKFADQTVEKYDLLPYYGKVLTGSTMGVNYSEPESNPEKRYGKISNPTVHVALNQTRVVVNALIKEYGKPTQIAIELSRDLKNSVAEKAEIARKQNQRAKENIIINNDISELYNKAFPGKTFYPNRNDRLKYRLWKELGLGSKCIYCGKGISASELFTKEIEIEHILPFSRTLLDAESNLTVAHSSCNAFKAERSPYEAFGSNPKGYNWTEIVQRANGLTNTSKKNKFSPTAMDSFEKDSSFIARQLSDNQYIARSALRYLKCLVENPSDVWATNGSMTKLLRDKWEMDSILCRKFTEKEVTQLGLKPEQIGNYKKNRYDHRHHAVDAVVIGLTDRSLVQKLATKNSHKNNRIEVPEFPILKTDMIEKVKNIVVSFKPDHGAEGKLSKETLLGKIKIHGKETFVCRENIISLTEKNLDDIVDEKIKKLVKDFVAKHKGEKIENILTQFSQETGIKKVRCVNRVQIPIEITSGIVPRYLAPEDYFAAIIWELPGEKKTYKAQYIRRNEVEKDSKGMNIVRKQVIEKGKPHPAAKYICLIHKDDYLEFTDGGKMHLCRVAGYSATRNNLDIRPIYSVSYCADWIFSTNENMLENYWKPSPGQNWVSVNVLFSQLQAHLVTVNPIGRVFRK

Sequence	activity (1-depletion score) [1]	activity (1-depletion score) [2]	activity (1-depletion score) [3]	further results
GGAAGAGCAGAGCCUUGGUCUCGUUGCACCUAGACACCGAAAGGUGUCUUUGUGUUAAUAAGAACCUUUCUUUGGAAAGGAGUUCACCAUUUACAAACAGGCACUUCGGUGUCUGUUUUUUU / GGAAGAGCAGAGCCTTGGTCTCNNNNNNNN / NNNNNNNNGAGACCAAGGCTCTGCTCTTCC [T2 sgRNA 14 V1 ; T2 protospacer + 8N PAM library (pbPOS T2)]	0.94	0.97	0.98	
GGAAGAGCAGAGCCUUGGUCUCGUUGCACCUAGACACCGAGAAAUCGGUGUCUUUGUGUUAAUAAGAACCUUUCUUUGGAAAGGAGUUCACCAUUUACAAACAGGCACUUCGGUGUCUGUUUUUU / GGAAGAGCAGAGCCTTGGTCTCNNNNNNNN / NNNNNNNNGAGACCAAGGCTCTGCTCTTCC [T2 sgRNA 13 V1 ; T2 protospacer + 8N PAM library (pbPOS T2)]	1	0.98	0.92	
GGAAGAGCAGAGCCUUGGUCUCGUUGCACCUAGACGAAAGUCUUUGUGUUAAUAAGAACCUUUCUUUGGAAAGGAGUUCACCAUUUACAAACAGGCACUUCGGUGUCUGUUUUUU / GGAAGAGCAGAGCCTTGGTCTCNNNNNNNN / NNNNNNNNGAGACCAAGGCTCTGCTCTTCC [T2 sgRNA 11 V1 ; T2 protospacer + 8N PAM library (pbPOS T2)]	0.98	0.96	1	
GGAAGAGCAGAGCCUUGGUCUCGUUGCAGGUUGACCGGGAAAGCGGUCAACCUGCUAACAAGGAAACCUUUAGUUUCCGCAAAAUGCUUUUAUAUUCGUUGAGAUUUUUGCGUGAAUAUAGAUAGCACACAAUGCAAAGGGAAAGCUACGGCUUUCCCCCUUUUUUUU / GGAAGAGCAGAGCCTTGGTCTCNNNNNNNN / NNNNNNNNGAGACCAAGGCTCTGCTCTTCC [T2 sgRNA 1 V1 ; T2 protospacer + 8N PAM library (pbPOS T2)]				activity (1-depletion score) [4]: 0.95
GGAAGAGCAGAGCCUUGGUCUCGUUGCAGGUUGACCGGGAAAGCGGUCAACCUGCUAACAAGGAAACCUUUAGUUUCCGCAAUAUGCUUUAAUAUUCGUUGAGAUUAUUGCGUGAAUAUAGAUAGCACACAAUGCAAAGGGAAAGCUACGGCUUUCCCCCUUUUUUUU / GGAAGAGCAGAGCCTTGGTCTCNNNNNNNN / NNNNNNNNGAGACCAAGGCTCTGCTCTTCC [T2 sgRNA 1 V2 ; T2 protospacer + 8N PAM library (pbPOS T2)]				activity (1-depletion score) [4]: 0.94
GGAAGAGCAGAGCCUUGGUCUCGUUGCAGGUUGACCGGGAAAGCGGUCAACCUGCUAACAAGGAAACCUUUAGUUUCCGCAAUAUGCUUUAAUAUUCGUUGAGAUUAUUGCGUGAAUAUAGAUAGCACACAAUGCUUUUU / GGAAGAGCAGAGCCTTGGTCTCNNNNNNNN / NNNNNNNNGAGACCAAGGCTCTGCTCTTCC [T2 sgRNA 1 V3 ; T2 protospacer + 8N PAM library (pbPOS T2)]				activity (1-depletion score) ([4]; terminal hairpin deleted): 0.95
GGAAGAGCAGAGCCUUGGUCUCGUUGCAGGUUGACCGGGAAAGCGGUCAACCUGCUAACAAGGAAACCUUUAGUUUCCGCAAUAUGCUUUAAUAUUCGUUGAGAUUAUUGCGUGAAUAUAGAUUUUU / GGAAGAGCAGAGCCTTGGTCTCNNNNNNNN / NNNNNNNNGAGACCAAGGCTCTGCTCTTCC [T2 sgRNA 1 V4 ; T2 protospacer + 8N PAM library (pbPOS T2)]				activity (1-depletion score) ([4]; two last hairpins deleted): 0.96

Source: patent publication US20240425885
